The values below come from PMC6663034, “ACAP1 assembles into an unusual protein lattice for membrane deformation through multiple stages” (PLoS Computational Biology, 2019).

The data set concerns the molecule itself. As to the kind of experiment: cryo-EM structure; cryo-electron tomography and sub-tomogram averaging of the ACAP1^BAR-PH coat on non-tubulated (spherical) portions of liposomes; average of 233 coat particles; dimer model PDB 4CKG fitted into the density; dimers to tetramer on membrane.

B1: ACAP1^BAR-PH (a.a. 1-377) (domain or fragment, UniProt Q15027 1-377, looked up)
chain: MTVKLDFEECLKDSPRFRASIELVEAEVSELETRLEKLLKLGTGLLESGRHYLAASRAFVVGICDLARLGPPEPMMAECLEKFTVSLNHKLDSHAELLDATQHTLQQQIQTLVKEGLRGFREARRDFWRGAESLEAALTHNAEVPRRRAQEAEEAGAALRTARAGYRGRALDYALQINVIEDKRKFDIMEFVLRLVEAQATHFQQGHEELSRLSQYRKELGAQLHQLVLNSAREKRDMEQRHVLLKQKELGGEEPEPSLREGPGGLVMEGHLFKRASNAFKTWSRRWFTIQSNQLVYQKKYKDPVTVVVDDLRLCTVKLCPDSERRFCFEVVSTSKSCLLQADSERLLQLWVSAVQSSIASAFSQARLDDSPRGPGQ
notes: ACAP1 (Arfgap with Coil-coil, Ankryin repeat, PH domain 1), BAR-PH tandem, a.a; 1-377; also called BAR-PH tandem of ACAP1; wild-type ACAP1^BAR-PH; source: E. coli BL21 (DE3), purified (glutathione-Sepharose 4B, GST removed with Precision Protease)
As for B1, the stoichiometry N (in general, the number of molecules, sites or subunits per partner or assembly) worked out at 4.
